Test system: Lenti-X 293T cells
Assay: YFP fluorescence quenching anion reporter plate reader assay of engineered receptors stimulated with acetylcholine or a non-native ligand
Format: cell-based
In short: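 Lenti-X 293T cells carrying a YFP anion reporter were transiently transfected with channel DNA and assayed the next day in HEPES-buffered ECS at pH 7.2. Ligand (acetylcholine or non-native ligand) was added in NaI-substituted ECS. Percent quench was the mean of the last 10 s relative to the 15 s pre-addition baseline.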

B1: CODA342: engineered chimeric LGIC receptor, L131R in SEQ ID NO: 33 (protein)
chain: MRCSPGGVWLALAASLLHVSLQGEFQRKLYKELVKNYNPLERPVANDSQPLTVYFSLSLLQIMDVDEKNQVLTTNIWLQMSWTDHYLQWNVSEYPGVKTVRFPDGQIWKPDILLYNSADERFDATFHTNVRVNSSGHCQYLPPGIFKSSCPMDLKNFPMDVQTCKLKFGSWSYGGWSLDLQMQEADISGYIPNGEWDLVGIPGKRSERFYECCKEPYPDVTFTVTMRRRMGYYLIQMYIPSLLIVILSWISFWINMDAAPARVGLGITTVLTMTTQSSGSRASLPKVSYVKAIDIWMAVCLLFVFSALLEYAAVNFVSRQHKELLRFRRKRRHHKSPMLNLFQEDEAGEGRFNFSAYGMGPACLQAKDGISVKGANNSNTTNPPPAPSKSPEEMRKLFIQRAKKIDKISRIGFPMAFLIFNMFYWIIYKIVRREDVHNQ
modifications: synthetic sequence of chimeric LGIC
- YFP fluorescence quenching using CNL001 (1 nM CNL001, first column): 23.532%
- YFP fluorescence quenching using CNL001 (1 nM CNL001, second column): 26.054%
- YFP fluorescence quenching using TC-5619/Bradanicline (1 nM brd): −7.83%
- YFP fluorescence quenching using TC-5619/Bradanicline (3 nM brd): −12.89%
- YFP fluorescence quenching using Varenicline (3 nM var, first column): 0.271
- YFP fluorescence quenching using Varenicline (3 nM var, second column): −3.613
- YFP fluorescence quenching using CNL001 (10 nM CNL001, first column): 43.69%
- YFP fluorescence quenching using CNL001 (10 nM CNL001, second column): 54.016%
- YFP fluorescence quenching using TC-5619/Bradanicline (10 nM brd): −10.47%
- YFP fluorescence quenching using TC-5619/Bradanicline (30 nM brd): 59.48%
- YFP fluorescence quenching using Facinicline (30 nM fac): −6.2
- YFP fluorescence quenching using Varenicline (30 nM var, first column): −4.935
- YFP fluorescence quenching using Varenicline (30 nM var, second column): −4.363
- YFP fluorescence quenching using CNL001 (50 nM CNL001, first column): 59.955%
- YFP fluorescence quenching using CNL001 (50 nM CNL001, second column): 56.091%
- YFP fluorescence quenching using ABT-126 (50 nM abt): −18.14%
- YFP fluorescence quenching using CNL001 (100 nM CNL001, first column): 64.536%
- YFP fluorescence quenching using CNL001 (100 nM CNL001, second column): 58.987%
- YFP fluorescence quenching using CNL002 (100 nM CNL002): −17.2%
- YFP fluorescence quenching using ABT-126 (100 nM abt): −18.14%
- YFP fluorescence quenching using AZD-0328 (100 nM azd0328): 1.79%
- YFP fluorescence quenching using TC-5619/Bradanicline (100 nM brd): 70.19%
- YFP fluorescence quenching using ABT-126 (300 nM abt): −0.81%
- YFP fluorescence quenching using AZD-0328 (300 nM azd0328): 66.58%
- YFP fluorescence quenching using TC-5619/Bradanicline (300 nM brd): 75.11%
- YFP fluorescence quenching using Facinicline (300 nM fac): 76.75
- YFP fluorescence quenching using Varenicline (300 nM var, first column): 0.282
- YFP fluorescence quenching using Varenicline (300 nM var, second column): 2.32
- YFP fluorescence quenching using ABT-126 (500 nM abt): 23.29%
- YFP fluorescence quenching using Varenicline (500 nM var, first column): 23.777
- YFP fluorescence quenching using Varenicline (500 nM var, second column): 18.376
- YFP fluorescence quenching using CNL001 (1 uM CNL001, first column): 65.987%
- YFP fluorescence quenching using CNL001 (1 uM CNL001, second column): 64.312%
- YFP fluorescence quenching using CNL002 (1 uM CNL002): 8.12%
- YFP fluorescence quenching using ABT-126 (1 uM abt): 45.76%
- YFP fluorescence quenching using TC-5619/Bradanicline (1 uM brd): 77.42%
- YFP fluorescence quenching using TC-6987 (1 uM tc6987): 2.51
- YFP fluorescence quenching using Varenicline (1 uM var, first column): 66.17
- YFP fluorescence quenching using Varenicline (1 uM var, second column): 66.088
- YFP fluorescence quenching using ABT-126 (3 uM abt): 53.03%
- YFP fluorescence quenching using ABT-126 (10 uM abt): 64.08%
- YFP fluorescence quenching using Facinicline (10 uM fac): 82.16
- YFP fluorescence quenching using TC-6987 (10 uM tc6987): 46.22
- YFP fluorescence quenching using CNL002 (30 uM CNL002): 57.24%
- YFP fluorescence quenching using ABT-126 (30 uM abt): 71.98%
- YFP fluorescence quenching using AZD-0328 (30 uM azd0328): 80.55%
- YFP fluorescence quenching using Facinicline (30 uM fac): 81.71
- YFP fluorescence quenching using ABT-126 (50 uM abt): 73.98%
- YFP fluorescence quenching using ABT-126 (100 uM abt): 73.51%
- YFP fluorescence quenching using TC-6987 (500 uM tc6987): 68.33
- percent quench of YFP fluorescence, 30 nM TC-6683 (TC-6683 30 nM): −16.26%
- percent quench of YFP fluorescence, 300 nM TC-6683 (TC-6683 300 nM): −22.45%
- percent quench of YFP fluorescence, 3 uM TC-6683 (TC-6683 3 uM): −13.48%
- percent quench of YFP fluorescence, 30 uM TC-6683 (TC-6683 30 uM): −12.68%
- percent quench of YFP fluorescence, 100 uM TC-6683 (TC-6683 100 uM): −10.33%
- percent quench of YFP fluorescence, 10 uM ach (acetylcholine 10 uM): −2.57%
- percent quench of YFP fluorescence, 100 uM ach (acetylcholine 100 uM): −3.18%
- percent quench of YFP fluorescence, 1 mM ach (acetylcholine 1 mM): 78.98%
- percent quench of YFP fluorescence, 3 mM ach (acetylcholine 3 mM): 75.75%
